The values that follow come from article PMC7467689.

Test [1] concerns the target coat protein of ssRNA bacteriophage AVE016 (uncultured ssRNA bacteriophage AVE016 (metagenome-derived)). The test is described as follows: crystal structure.
For test [2], the target named is coat protein of ssRNA bacteriophage EMS014 (uncultured ssRNA bacteriophage EMS014 (metagenome-derived)). In words: crystal structure.

What is called stoichiometry N is the number of molecules, sites or subunits per partner or assembly. In test [1], “coat protein of ssRNA bacteriophage AVE016 (natural protein)” returned a stoichiometry N of 210 CP monomers.

Consider “coat protein of ssRNA bacteriophage EMS014 (natural protein)”, for which, in test [2], the stoichiometry N was 2.
